Here are results for 4 variants from paper PMC11213201 (2024).

First the molecules themselves.
B1: ZFYVE21-FLAG [not stated] / LC3B [human (endogenous in HUVEC)] (parent complex)
chain 1: MSSEVSARRDAKKLVRSPSGLRMVPEHRAFGSPFGLEEPQWVPDKECRRCMQCDAKFDFLTRKHHCRRCGKCFCDRCCSQKVPLRRMCFVDPVRQCAECALVSLKEAEFYDKQLKVLLSGATFLVTFGNSEKPETMTCRLSNNQRYLFLDGDSHYEIEIVHISTVQILTEGFPPGGGNARATGMFLQYTVPGTEGVTQLKLTVVEDVTVGRRQAVAWLVAMHKAAKLLYESRDQ
chain 2: not shown

The experiment covers variants of B1. Put plainly: FLAG co-IP and Western blot (densitometry); transduced HUVECs; read off a plot. In general terms: A western blot detects proteins with antibodies after separation by electrophoresis.
On to chain 1 L60A, for which the response was roughly 0.078 Fold Change LC3-II.
For chain 1 F57A, the response is roughly 0.17 Fold Change LC3-II.
The same measure for chain 1 L149A: roughly 0.092 Fold Change LC3-II; for chain 1 Y146A: roughly 0.036 Fold Change LC3-II.
